The MegaScale stability set (Tsuboyama et al. 2023)

B1: r11_951_TrROS_Hall (parent)
chain: KKKYVIKVYFEDTGKEVEIEAESKEEALEAAKRLAEELGLKIKKVEIYP

Variants of: B1
Assay: folding stability dG (cDNA display proteolysis); higher = more stable
Conditions: PBS, room temperature

Folding stability dG [kcal/mol]: each site, then its substitutions
S23: E 4.22; K 3.92; G 4.06; A 4.08; L 4.01; D 4.31; H 4.08; I 4; F 4.26; C 4.05
D12: W 4.75; E 4.31; C 4.38; P 4.35; K 4.62; H 4.49; G 4.54; R 4.79; Y 4.66; F 4.64; S 4.38; M 4.55; T 4.5; A 4.41; V 4.34; Q 4.38; I 4.66; N 4.42; L 4.59
E16: D 4.62; R 4.22; I 4.55; F 4.5; L 4.29; G 4.35; A 4.49; V 4.16; S 4.38; N 4.44; T 4.45; Q 4.2; H 4.29; K 4.23; M 4.28; Y 4.45; C 4.05; P 4.21; W 4.48
T13: S 4.55; D 4.11; F 4.36; C 3.6; Y 4.47; G 4.52; M 4.35; A 4.42; P 4.48; V 4.4; L 4.29; R 4.66; I 4.41; E 4.4; N 4.58; K 4.48; Q 4.32; H 4.33; W 4.28
A21: W 3.72; S 4.7; E 4.25; I 4.44; K 4.29; M 4.26; R 4.32; Q 3.77; T 4.37; C 4.07; V 4.45; P 2.03; D 3.72; N 3.84; F 4.23; H 4.3; L 4.24; G 4.28; Y 4.18
F10: S 3.13; R 1.98; W 4.44; P 2.07; E 2.52; C 3.67; D 2.86; A 2.98; T 3.32; L 3.94; Q 2.23; K 1.65; M 3.73; V 2.98; I 3.28; N 2.58; G 3.16; H 2.56; Y 3.94
E11: A 4.58; K 4.64; P 3.62; S 4.63; N 4.67; L 4.92; Y 4.83; T 4.48; I 4.86; D 4.5; C 4.63; H 4.83; M 4.8; G 4.49; F 4.94; Q 4.79; V 4.83; R 4.82
I6: Q 1.59; W 4.67; H 2.82; P -0.197; Y 4.79; A 4.12; V 4.06; L 4.34; K 0.69; T 3.59; F 4.55; D 0.044; R 0.95; M 4.46; C 3.63; G 3.82; S 3.42; E 1.26; N 1.53
E20: G 4.27; L 4.36; Y 4.56; T 4.4; I 4.38; V 4.42; M 4.42; N 4.22; C 4.28; S 4.22; F 4.25; Q 4.43; W 4.49; P 4.29; R 4.29; H 4.42; A 4.33; D 4.27; K 4.03
E18: Y 4.12; K 4.07; A 4.14; N 4.16; G 4.06; T 4.3; D 4.45; F 4.21; V 4.35; H 4.32; C 4.4; R 4.19; M 4.35; W 4.3; L 4.46; S 4.25; I 4.61; P 3.84; Q 4.5
Y9: F 4.25; D 3.41; M 4.4; E 4.28; R 4.14; L 4.26; I 4.35; P 1.42; W 4.86; T 4.22; N 3.87; V 4.3; C 3.95; K 3.98; S 4.16; H 4.26; A 3.91; Q 4.09; G 3.74
V8: R 0.173; E 0.978; A 3.59; L 4.25; M 4.28; Q 1.52; K 0.16; I 4.47; T 2.91; D 1.26; S 1.87; G 2.51; C 3.91; Y 4.22; W 4.03; N 1.36; P 0.881; F 4.61; H 1.38
E22: I 4.11; S 4.25; M 4.07; R 4.18; N 4.38; K 4.05; Q 4.11; F 4.46; G 4.32; C 4.52; Y 4.52; H 4.49; A 4.36; W 4.64; T 4.23; P 4.4; V 4.29; D 4.26; L 4.26
V5: W 4.62; Y 4.37
G14: F 4.73; M 4.29; P 4.26; Q 4.39; C 4.36; N 4.43; L 4.25; V 4.62; Y 4.5; W 4.61; D 4.37; R 4.05; S 4.66; K 4.37; E 4.3; T 4.41; I 4.58; H 4.27; A 4.34
I19: W 4.51; T 3.98; H 3.61; K 3.18; M 4.5; Y 4.49; A 3.98; G 3.31; F 4.33; V 4.19; Q 3.59; D 3.07; S 3.56; L 4.5; E 3.36; C 4.1; R 3.57; P 0.94; N 2.66
K7: W 4.45; Q 3.75; C 3.91; G 3.32; V 4.1; E 3.12; M 4.1; A 3.95; F 4.21; S 3.73; Y 4.13; D 2.75; R 4.64; L 4.09; N 3.9; I 4.11; H 4.19; T 4.07; P 1.45
V17: Q 4; W 4.53; M 4.28; G 4.05; C 4.25; H 4.4; D 3.74; K 4.07; A 4.23; S 4.23; R 4.29; E 4.29; F 4.42; L 4.42; T 4.29; N 3.71; I 4.4; P 3.58; Y 4.36
K15: T 4.5; D 4.17; S 4.28; H 4.54; M 4.16; Q 4.27; E 4.35; W 4.23; R 4.19; G 4.19; L 4.28; A 4.22; F 4.38; V 4.37; C 3.19; Y 4.52; N 4.63; I 4.22; P 4.29
